Assay: label from the status in PepcDB records

Row | Sequence | protein production
1 | MKFFSLADEAEFKSIIISKNKAVDVIGSKLGGQVVSFSDEWFASAENLIQPTAPIRDPTRFVHSGAWYDGWETRRHNEMEYDWVIIKMGVAAAHIIGGEIDTAFFNGNHAPFVSIEALYDEGEEGNIVEDDSRWVEIVEKFECGPSQRHLFVRGNGLTKERFTHIKLKMYPDGGIARFRLYGRVVPPELKTKDHIIDLAYVCNGAVALKYSDQHFGSVDNLLLPGRGHDMSDGWETKRSRQPGHTDWAVIQLGRESSFIEKIIVDTAHFRGNFPQFITVEGCLKESESSENTGEGTWVELVGKSKTGPDKEHVYEIRKSIRVSHVKLTIIPDGGVKRIRVWGY | not failed
2 | MKFGEHLSKSLIRQYSYYYISYDDLKTELEDNLSKNNGQWTQELETDFLESLEIELDKVYTFCKVKHSEVFRRVKEVQEQVQHTVRLLDSNNPPTQLDFEILEEELSDIIADVHDLAKFSRLNYTGFQKIIKKHDKKTGFILKPVFQVRLDSKPFFKENYDELVVKISQLYDIARTSGRPIKGDSSAGGKQQNFVRQTTKYWVHPDNITELKLIILKHLPVLVFNTNKEFEREDSAITSIYFDNENLDLYYGRLRKDEGAEAHRLRWYGGMSTDTIFVERKTHREDWTGEKSVKARFALKERHVNDFLKGKYTVDQVFAKMRKEGKKPMNEIENLEALASEIQYVMLKKKLRPVVRSFYNRTAFQLPGDARVRISLDTELTMVREDNFDGVDRTHKNWRRTDIGVDWPFKQLDDKDICRFPYAVLEVKLQTQLGQEPPEWVRELVGSHLVEPVPKFSKFIHGVATLLNDKVDSIPFWLPQMDVDIRKPPLPTNIEITRPGRSDNEDNDFDEDDEDDAALVAAMTNAPGNSLDIEESVGYGATSAPTSNTNHVVESANAAYYQRKIRNAENPISKKYYEIVAFFDHYFNGDQISKIPKGTTFDTQIRAPPGKTICVPVRVEPKVYFATERTYLSWLSISILLGGVSTTLLTYGSPTAMIGSIGFFITSLAVLIRTVMVYAKRVVNIRLKRAVDYEDKIGPGMVSVFLILSILFSFFCNLVAK | failed
3 | MKFLKYFTFELRLRYRNPSQILFVFIFPLFLMFAFSSSFGKSIPHYIENNIASILLYSVLSASLTSLSVQIADHQSGKIYQLFVQRGIKKLFYIIAQIVSFMIIIFCSTLVILVVAHYAYDYEFPKLSLLILFYLKLYLYSIPFCLLAMIIGLLAKNTATASAIAMPLMFLSFFFSGMMIPLAQLSGGIRKIADNFFLTQLLSDLNHTLTSNYTVVPNWSRISLSVGLICLLALLVYRRKA | failed
4 | MKFLRLLKHPASTAPGRAFQLYPWQERIVRAIYGPRHPDGSRIVKTVFLLVPRGNRKTSLAAALALLHTLGPERVPAGQVIFAACDREQAGIGFREAANIIRADKRLVAATRIYDAHNSAKKIVFRAEDVTLSAISSDGGAQHGRTPAFTLIDELHAWKGRDLWEALKSGTAKVADSLTVIATTAGRGADTVAAEQYAYALAVARGEIVNPAFLPILFAPEPGDDWTDEATWHKVNPGLRHGFPSLEGLRTLAKEAEGRPSDAYAFRQFNLNEWMANSRDPLFDFDTYDARRFAEDLDELEGLPCWIGVDLSISGDLSAVVAAWKHPDGQISVKPWFWVPGDDLKVRADRDGVPYERWRDEGHLIATPGAIIDQSAVADQIRELCARFDAQEVAFDPHLARPMMQSLYDEGLPVVEMRQAPLTMGVAAGDLERVVNGRLIRHDGHPVLRNHLQNVCASRSESGLIRMHKVQRTSRIDGAVAAAMAVSRAVAADSRKSAYSDPEAEGLFVF | failed
5 | MKFNEFLNNLSNYEPGKDIEVIAKEYGVKEVIKLASNENPFGTPPKAIECLRQNANKAHLYPDDSMIELKSTLAQKYKVQNENIIIGAGSDQVIEFAIHSKLNSKNAFLQAGVTFAMYEIYAKQCGAKCYKTQSITHNLDEFKKLYETHKDEIKLIFLCLPNNPLGECLDASEATEFIKGVNEDCLVVIDAAYNEFASFKDSKKHLEPCELIKEFDNVLYLGTFSKLYGLGGLRIGYGIANANIISAFYKLRAPFNVSNLALKAAVAAMDDDEFTEKTLENNFSQMELYKEFAKKHNIKIIDSYTNFITYFFDEKNSTDLSEKLLKKGIIIRNLKSYGLNAIRITIGTSYENEKFFTEFDKILR | not failed
6 | MKFQPLGERVLVERLEEENKTSSGIIIPDNAKEKPLMGVVKAVSHKISEGCKCVKEGDVIAFGKYKGAEIVLDGTEYMVLELEDILGIVGSGSCCHTGNHDHKHAKEHEACCHDHKKH | failed

From a protein production outcome set (Wang et al. 2014)
